Measurements taken from patent publication US20250340607A1 (UNIVERSITY OF CHICAGO, published 2025).

B1: wild type murine Flt3L (ligand)
chain: MTPDCYFSHSPISSNFKVKFRELTDHLLKDYPVTVAVNLQDEKHCKALWSLFLAQRWIEQLKTVAGSKMQTLLEDVNTEIHFVTSCTFQPLPECLRFVQTNISHLLKDTCTQLLALKPCIGKACQNFSRCLEVQCQPDSSTLLPPRSPIALEATELPEPRPRQ
notes: Made in HEK293F cells and glycosylated (multiple bands around 30 kDa); also called WT Flt3L; WT; not shown: it was purified over a HisTrap HP column, so it probably carries a His tag
B2: Flt3L fused to Mouse Serum Albumin (Flt3L-MSA) (other)
chain: MTPDCYFSHSPISSNFKVKFRELTDHLLKDYPVTVAVNLQDEKHCKALWSLFLAQRWIEQLKTVAGSKMQTLLEDVNTEIHFVTSCTFQPLPECLRFVQTNISHLLKDTCTQLLALKPCIGKACQNFSRCLEVQCQPDSSTLLPPRSPIALEATELPEPRPRQGGGGSGGGGSEAHKSEIAHRYNDLGEQHFKGLVLIAFSQYLQKCSYDEHAKLVQEVTDFAKTCVADESAANCDKSLHTLFGDKLCAIPNLRENYGELADCCTKQEPERNECFLQHKDDNPSLPPFERPEAEAMCTSFKENPTTFMGHYLHEVARRHPYFYAPELLYYAEQYNEILTQCCAEADKESCLTPKLDGVKEKALVSSVRQRMKCSSMQKFGERAFKAWAVARLSQTFPNADFAEITKLATDLTKVNKECCHGDLLECADDRAELAKYMCENQATISSKLQTCCDKPLLKKAHCLSEVEHDTMPADLPAIAADFVEDQEVCKNYAEAKDVFLGTFLYEYSRRHPDYSVSLLLRLAKKYEATLEKCCAEANPPACYGTVLAEFQPLVEEPKNLVKTNCDLYEKLGEYGFQNAILVRYTQKAPQVSTPTLVEAARNLGRVGTKCCTLPEDQRLPCVEDYLSAILNRVCLLHEKTPVSEHVTKCCSGSLVERRPCFSALTVDETYVPKEFKAETFTFHSDICTLPEKEKQIKKQTALAELVKHKPKATAEQLKTVMDDFAQFLDTCCKAADKDTCFSTEGPNLVTRCKDALAHHHHHH
notes: also called MSA fused Flt3L; Flt3L-SA

Molecular target: T1, murine Flt3 (R&D 768-F3-050) (murine, UniProt Q00342 28-544)
T1 construct: Bought recombinant protein coated on the ELISA plate; also called receptor for Flt3L; recombinant CD135
T1 sequence (looked up): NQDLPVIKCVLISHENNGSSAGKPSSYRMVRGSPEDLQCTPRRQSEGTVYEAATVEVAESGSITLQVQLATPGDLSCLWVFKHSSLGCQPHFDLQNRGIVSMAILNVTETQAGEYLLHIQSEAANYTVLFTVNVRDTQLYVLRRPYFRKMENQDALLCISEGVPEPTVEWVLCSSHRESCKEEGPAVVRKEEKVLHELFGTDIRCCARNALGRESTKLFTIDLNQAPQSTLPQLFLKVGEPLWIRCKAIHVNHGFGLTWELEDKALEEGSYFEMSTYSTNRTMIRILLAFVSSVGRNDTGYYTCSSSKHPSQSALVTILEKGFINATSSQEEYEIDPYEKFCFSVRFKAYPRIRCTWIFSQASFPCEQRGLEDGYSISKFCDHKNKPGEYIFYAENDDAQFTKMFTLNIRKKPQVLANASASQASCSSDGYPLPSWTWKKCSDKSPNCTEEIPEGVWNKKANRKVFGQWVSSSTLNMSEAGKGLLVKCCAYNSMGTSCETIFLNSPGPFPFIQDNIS
Assay: ELISA: plate coated with murine Flt3, Flt3L variants titrated, detection with biotinylated anti-Flt3L and avidin-HRP
Method: Protein was cloned, produced, and purified as described in methods. Following purification, bands were confirmed at the expected sizes via SDS-PAGE under reducing conditions (WT at around 30 KDa with multiple bands due to glycosylation differences and Flt3L-MSA at around 75 KDa). Binding of each protein to the receptor for Flt3L (murine Flt3, R&D 768-F3-050) was then confirmed via ELISA. Briefly, high binding plates were coated overnight with 50 μL of 1 nM protein in a Carb/Bicarb buffer pH of 9. The plates were then washed and blocked using R&D blocking buffer before the addition of Flt3L variants at different concentrations in blocking buffer. Detection occurred using biotinylated αFlt3L and subsequent incubation with avidin-HRP. Binding was then visualized via incubation with TMB solution until highest concentrations reached an approximate absorbance of 1 and the reaction was stopped using 2N H2SO4.
High-bind plates (Corning #9018) were coated by incubating overnight at 4 C with 10 nM recombinant CD135 (R&D 768-F3-050) in […] sodium bicarbonate buffer at pH 9.2. Following coating, plates were washed in PBST before blocking in 1× reagent diluent (R&D DY995) for 2 hours at RT. Samples were then diluted to the indicated concentration in triplicate using the same reagent diluent. […] Quantification occurred by reading the absorbance at 450 nm and 570 nm.

| Binder | Kd [nM] |
| --- | --- |
| B1 | 0.16 |
| B2 | 0.16 |
